In patent US20240043507A1:

How the values were obtained:
Assay in all cases: cell-based or functional assay
[1] = biological target: spike protein of SARS-CoV-2 strain B.1.1.7 (SARS-CoV-2) (UniProt P0DTC2)
[2] = biological target: spike protein of SARS-CoV-2 strain B.1.351 (SARS-CoV-2) (UniProt P0DTC2)
[3] = biological target: spike protein of SARS-CoV-2 strain P.1 (SARS-CoV-2) (UniProt P0DTC2)
[4] = biological target: spike protein of SARS-CoV-2 strain Victoria (SARS-CoV-2/human/AUS/VIC01/2020) (SARS-CoV-2) (UniProt P0DTC2)
[5] = biological target: SARS-CoV-2 spike protein on authentic virus, strain B.1.1.7 (SARS-CoV-2) (UniProt P0DTC2)
[6] = biological target: SARS-CoV-2 spike protein on authentic virus, strain SARS-CoV-2/human/AUS/VIC01/2020 (Victoria) (SARS-CoV-2) (UniProt P0DTC2)

Q: With ADG10 (antibody) as the substance, how does the FRNT50 ratio B.1.1.7/Victoria [1] read?
A: 1.8

Q: And the IC50 (FRNT neutralisation) [1]?
A: 0.01 µg/mL

Q: What about the FRNT50 ratio B.1.351/Victoria [2] of the same substance?
A: 1.9

Q: And the IC50 (FRNT neutralisation) [2]?
A: 0.011 µg/mL

Q: What about the FRNT50 ratio P.1/Victoria [3] of the same substance?
A: 0.5

Q: And the IC50 (FRNT neutralisation) [4]?
A: 6 ng/mL

Q: What does the source list for ADG20 (antibody)?
A: FRNT50 ratio B.1.1.7/Victoria [1]: 1.4; IC50 (FRNT neutralisation) [1]: 0.006 µg/mL; FRNT50 ratio B.1.351/Victoria [2]: 2.5; IC50 (FRNT neutralisation) [2]: 0.01 µg/mL; FRNT50 ratio P.1/Victoria [3]: 2.2; IC50 (FRNT neutralisation) [4]: 4 ng/mL

Q: For ADG30 (antibody), which FRNT50 ratio B.1.1.7/Victoria [1] is on record?
A: 2.5

Q: What about the IC50 (FRNT neutralisation) [1] of the same substance?
A: 0.016 µg/mL

Q: What about the FRNT50 ratio B.1.351/Victoria [2] of the same substance?
A: 4.4

Q: What about the IC50 (FRNT neutralisation) [2] of the same substance?
A: 0.029 µg/mL

Q: And the FRNT50 ratio P.1/Victoria [3]?
A: 0.3

Q: And the IC50 (FRNT neutralisation) [4]?
A: 7 ng/mL

Q: AZD1061 (antibody) was tested. Which IC50 (ug/ml), FRNT [5] did it give?
A: 0.012 µg/mL

Q: And the IC50 (ug/ml), FRNT [6]?
A: 0.013 µg/mL

Q: And the IC50 (FRNT neutralisation) [1]?
A: 0.012 µg/mL

Q: What about the IC50 (FRNT neutralisation) [2] of the same substance?
A: 0.014 µg/mL

Q: What about the IC50 (FRNT neutralisation) [4] of the same substance?
A: 13 ng/mL

Q: And the IC50 (FRNT, live virus neutralisation) [4]?
A: 13 ng/mL

Q: For AZD8895 (antibody), which IC50 (ug/ml), FRNT [5] is on record?
A: 0.011 µg/mL

Q: And the IC50 (ug/ml), FRNT [6]?
A: 0.005 µg/mL

Q: What about the IC50 (FRNT neutralisation) [1] of the same substance?
A: 0.011 µg/mL

Q: And the IC50 (FRNT neutralisation) [2]?
A: 0.046 µg/mL

Q: And the IC50 (FRNT neutralisation) [4]?
A: 5 ng/mL

Q: What about the IC50 (FRNT, live virus neutralisation) [4] of the same substance?
A: 5 ng/mL

Q: For LY-CoV16 (antibody), which FRNT50 ratio B.1.1.7/Victoria [1] is on record?
A: 1.5

Q: And the IC50 (FRNT neutralisation) [1]?
A: 3.23 µg/mL

Q: What about the FRNT50 ratio B.1.351/Victoria [2] of the same substance?
A: > 291

Q: What about the IC50 (FRNT neutralisation) [2] of the same substance?
A: > 10 µg/mL

Q: And the FRNT50 ratio P.1/Victoria [3]?
A: > 291

Q: And the IC50 (FRNT neutralisation) [4]?
A: 34 ng/mL

Q: Which results are given for LY-CoV555 (antibody)?
A: FRNT50 ratio B.1.1.7/Victoria [1]: 1.5; IC50 (FRNT neutralisation) [1]: 0.009 µg/mL; FRNT50 ratio B.1.351/Victoria [2]: > 1550; IC50 (FRNT neutralisation) [2]: > 10 µg/mL; FRNT50 ratio P.1/Victoria [3]: > 1550; IC50 (FRNT neutralisation) [4]: 6 ng/mL

Q: REGN10933 (antibody) was tested. Which IC50 (ug/ml), FRNT [5] did it give?
A: 0.014 µg/mL

Q: And the IC50 (ug/ml), FRNT [6]?
A: 0.004 µg/mL

Q: And the IC50 (FRNT neutralisation) [1]?
A: 0.014 µg/mL

Q: And the IC50 (FRNT neutralisation) [2]?
A: 3.28 µg/mL

Q: What about the IC50 (FRNT neutralisation) [4] of the same substance?
A: 4 ng/mL

Q: What about the IC50 (FRNT, live virus neutralisation) [4] of the same substance?
A: 4 ng/mL

Q: How did the IC50 (ug/ml), FRNT [5] turn out when REGN10987 (antibody) was run?
A: 0.028 µg/mL

Q: And the IC50 (ug/ml), FRNT [6]?
A: 0.032 µg/mL

Q: What about the IC50 (FRNT neutralisation) [1] of the same substance?
A: 0.028 µg/mL

Q: And the IC50 (FRNT neutralisation) [2]?
A: 0.007 µg/mL

Q: And the IC50 (FRNT neutralisation) [4]?
A: 32 ng/mL

Q: What about the IC50 (FRNT, live virus neutralisation) [4] of the same substance?
A: 32 ng/mL

Q: What does the source list for S309 (antibody)?
A: FRNT50 ratio B.1.1.7/Victoria [1]: 1.5; IC50 (FRNT neutralisation) [1]: 0.078 µg/mL; FRNT50 ratio B.1.351/Victoria [2]: 2; IC50 (FRNT neutralisation) [2]: 0.082 µg/mL; FRNT50 ratio P.1/Victoria [3]: 1.9; IC50 (FRNT neutralisation) [4]: 40 ng/mL
